72 sequences from the supplement of paper PMC10567573 can be followed below.

± gives the standard deviation.

This data set can be described thus: protein stability index of a GFP-peptide fusion (GPS, HEK-293T) (PSI 1-6); higher = more stable.
Setting [1] is: treatment: DMSO, c terminus: a fixed tail appended.
The mark [2] stands for this setting: treatment: MLN4924 1 uM, 8 h, c terminus: a fixed tail appended.
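Note: 24-mer peptide tiles fused after GFP, lentivirally expressed, FACS-sorted into six equal bins by GFP/DsRed ratio, decoded by Illumina sequencing, PSI is the read-weighted mean bin number.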

With PPPPMQPTVPSAATSQPTPSQHSA [CCDC6], the protein stability index by setting is: under setting [1], 5.23 ± 0.12; under setting [2], 5.47 ± 0.18.
On to PPSRGHGYRDYGHSRRHESYSRGY [RBMY1A1], for which the protein stability index under setting [1] was 3.96 ± 0.07 and the protein stability index under setting [2] is 4.01 ± 0.32.
PQFTGILQLLQSRTSRKFLACRLT [INTS3]: the protein stability index stood at 2.18 ± 0.41 under setting [1] and 2.16 ± 0.27 under setting [2].
Take PQKLKEVISLEKLNVGNERYVFEA [GAN]: the protein stability index was 2.96 ± 0.21 under setting [1] and 2.92 ± 0.41 under setting [2].
PQVPPSQPLRPWAGGDVPHKTHQA [DYRK1B]: the protein stability index under setting [1] was 4.41 ± 0.32 and the protein stability index under setting [2] is 4.63 ± 0.21.
As for PQVPQPPSPAAVPRPPSNPPARGT [TRAF3IP2], the protein stability index runs as follows: under setting [1], 5.2 ± 0.12; under setting [2], 5.17 ± 0.2.
With PQYTIRCRPLQFQPSKSHKKVLKK [ATE1], the protein stability index turned out to be 3.6 ± 0.09 under setting [1] and 3.88 ± 0.3 under setting [2].
Regarding PRDLPKHTPLISKSQSLRSVRRSE [RASAL3], the protein stability index runs as follows: under setting [1], 5.19 ± 0.27; under setting [2], 5.43 ± 0.2.
Sequence PRRESLLRGLCRPLRPLLGFRESD [C6orf223] had a protein stability index under setting [1] of 2.36 ± 0.46 and a protein stability index under setting [2] of 2.13 ± 0.43.
The corresponding values for PRRFTFYPCVLATEGFTSGRHYWE [TRIM39] are 2.31 ± 0.51 and 2.19 ± 0.13.
PSCRHEVVLDRHGVYGLQRNLLVE [TRIM55] had a protein stability index under setting [1] of 2.32 ± 0.36 and a protein stability index under setting [2] of 2.3 ± 0.47.
Consider PSLRPRPASSISLPIGHLGCISLL [DMRTC1], for which the protein stability index runs as follows: under setting [1], 2.55 ± 0.35; under setting [2], 2.85 ± 0.43.
The corresponding values for PSLSTITSTSSSITSSIPDTERLD [DVL3] are 5.23 ± 0.17 and 5.28 ± 0.16.
In turn, PSNRSFFSEIISSISDVKFSHSGR [PPP2R2B] showed a protein stability index under setting [1] of 2.73 ± 0.44 and a protein stability index under setting [2] of 2.78 ± 0.39.
As for PSSNEEIRLVDDAFGKICHMVSDG [INTS4], the protein stability index came out at 4.18 ± 0.23 under setting [1] and 4.5 ± 0.2 under setting [2].
Regarding PSSSSIHNGDMEKILLDAQHESGQ [BNIP3L], the protein stability index was found to be 5.12 ± 0.14 under setting [1] and 5.27 ± 0.096 under setting [2].
Take PTKSHSFRAMCQNGKLVYPSCEEK [CFHR2]: the protein stability index by setting is: under setting [1], 4.01 ± 0.32; under setting [2], 4.25 ± 0.34.
In the case of PTTSFLSISKLSPFSEFFKLRFNR [PWWP2B], the protein stability index reads like this: under setting [1], 2.07 ± 0.33; under setting [2], 2.13 ± 0.36.
In the case of PVFLHSQMLWELVLLGEPLVVMAP [DENND6A], the protein stability index runs as follows: under setting [1], 2.81 ± 0.63; under setting [2], 2.98 ± 0.69.
Take PVHLVDKLPLPIALRSHLKSFSMA [RAB40B]: the protein stability index runs as follows: under setting [1], 2.46 ± 0.2; under setting [2], 2.27 ± 0.2.
For the sequence PYQVNGVNPAYPESRYTSDYFISY [ETS1], the protein stability index is, setting by setting: under setting [1], 2.18 ± 0.18; under setting [2], 2.27 ± 0.21.
PYSTVDNPVYYGPSDFFIGAVIEV [EFHC1]: the protein stability index by setting is: under setting [1], 2.8 ± 0.48; under setting [2], 3.13 ± 0.53.
Regarding QAPGEENLLGEAAGGQDMADSMLM [HDAC6], the protein stability index came to 5.36 ± 0.16 under setting [1] and 5.14 ± 0.36 under setting [2].
For QAYLDDCHRRYSCAHCRAHLANHD [YPEL3], in that order: 2.68 ± 0.43 and 2.45 ± 0.39.
Consider QCLVEGCTEKFKTSRDRKDHMVRM [ZNF511], for which the protein stability index was determined as 3.57 ± 0.27 under setting [1] and 3.95 ± 0.25 under setting [2].
The corresponding values for QDEEDMFMVVDLLLGGDLRYHLQQ [STK32A] are 2.21 ± 0.18 and 2.1 ± 0.35.
As to QDIDLGAGREVFDYSHRQKEQDVE [NFE2L1], the protein stability index under setting [2] worked out at 5.05 ± 0.84.
QDSSVTSKRNIKKGAVPRSIPNLA [HDAC6]: the protein stability index turned out to be 4.17 ± 0.26 under setting [1] and 4.21 ± 0.41 under setting [2].
Turning to QEAMFNMATLNRTAAGLMHTFNAH [SEPHS2], the protein stability index runs as follows: under setting [1], 2.44 ± 0.12; under setting [2], 2.54 ± 0.18.
As for QELANIDPTWIESPKTNGHIENGP [SRPK2], the protein stability index by setting is: under setting [1], 4.92 ± 0.32; under setting [2], 4.63 ± 0.19.
Take QEMQQKLVELSAENEKLHQRVEQL [CEBPD]: the protein stability index is 4.84 ± 0.1 under setting [1] and 4.74 ± 0.54 under setting [2].
QFAAEYTSKNSSTQDPSQPNSTKN [LCOR] yielded a protein stability index under setting [1] of 5.22 ± 0.15 and a protein stability index under setting [2] of 5.36 ± 0.08.
In turn, QFLLELLSDKSCQSFISWTGDGWE [ETS2] came in with a protein stability index under setting [1] of 1.83 ± 0.38 and a protein stability index under setting [2] of 1.85 ± 0.29.
For the sequence QHCRQSLASRIRSNKKMLLLVGGL [KLHL14], the protein stability index turned out to be 2.54 ± 0.83 under setting [1] and 2.24 ± 0.43 under setting [2].
Consider QHSHVVRYFSAWAEDDHMLIQNEY [WEE1], for which the protein stability index runs as follows: under setting [1], 2.22 ± 0.14; under setting [2], 2.24 ± 0.12.
For QIDAVGSKLKMLERKGWLAPSPGV [PKD2L1], in that order: 3 ± 0.45 and 3.17 ± 0.22.
As to QIEKKEKKLHKIQNKAQRQKDLIM [TAF7L], the protein stability index was found to be 3.64 ± 0.32 under setting [1] and 3.85 ± 0.28 under setting [2].
For QKALYRRLATVHMSRMINKYKRRR [CLPTM1], in that order: 3.7 ± 0.22 and 3.53 ± 0.16.
The corresponding values for QKFRNQFLSFSMYQSFVQFLQYYY [TMEM120A] are 2.42 ± 0.21 and 2.41 ± 0.17.
Consider QLDALPFFVITMIKIVLINSFGAI [SLC29A1], for which the protein stability index by setting is: under setting [1], 2.96 ± 0.54; under setting [2], 3.31 ± 0.17.
The corresponding values for QLPFCGPNVIDNFLCDLYPLLKLA [OR4A15] are 2.64 ± 0.66 and 2.47 ± 0.25.
As for QLQLKIIEIEDEAEKWQKEKDRIK [TRIM29], the protein stability index runs as follows: under setting [1], 3.35 ± 0.24; under setting [2], 3.6 ± 0.36.
QLRKQKKKTGKSSTTALGDKQRKA [ELOA2]: the protein stability index is, setting by setting: under setting [1], 4.73 ± 0.51; under setting [2], 4.82 ± 0.39.
QQVPMPPGQEAQRVVCGIDSSMIL [NEK8]: the protein stability index reads like this: under setting [1], 3.39 ± 0.29; under setting [2], 3.5 ± 0.33.
On to QRAQAEVLQSVRELSRSRKLYGQR [FCHSD1], for which the protein stability index worked out at 3.76 ± 0.2 under setting [1] and 3.85 ± 0.36 under setting [2].
QRDGSKSEDELDQASTPTDVRDID [CCND2]: the protein stability index worked out at 5.62 ± 0.16 under setting [1] and 5.62 ± 0.14 under setting [2].
As for QRDLSPTAEDAELSDFEECEETGE [FCHSD1], the protein stability index came out at 5.55 ± 0.21 under setting [1] and 5.54 ± 0.21 under setting [2].
Turning to QRFHEICSNLVKTRRRAVGWWKRL [ARL6IP1], the protein stability index stood at 2.22 ± 0.41 under setting [1] and 2.55 ± 0.62 under setting [2].
For QSCWAFLPDLCLCRVFWWLGDRDR [FBXO39], in that order: 2.2 ± 0.35 and 2.27 ± 0.36.
The corresponding values for QSGRHLQTHSNTIVVSLQSKLASM [STX5] are 2.79 ± 0.36 and 2.97 ± 0.28.
For QSMSQTRELLLDGGYLQRTTYDRR [RSPH3], the protein stability index under setting [1] was found to be 3.85 ± 0.13 and the protein stability index under setting [2] came to 3.77 ± 0.052.
As to QTTTAYKKTHETLSHAGQKATAAF [TPD52L1], the protein stability index stood at 4.08 ± 0.34 under setting [1] and 3.98 ± 0.27 under setting [2].
As to QVGTLLFRSRSRLTHLSLSRRASE [CDC25B], the protein stability index turned out to be 2.93 ± 0.39 under setting [1] and 3 ± 0.13 under setting [2].
Regarding QVIHPQEFRRWRDTGVAFELRDSS [DNAAF3], the protein stability index reads like this: under setting [1], 3.29 ± 0.36; under setting [2], 3.31 ± 0.32.
As for QVLNETRSQYEALVETNRREVEQW [KRT34], the protein stability index under setting [1] was found to be 4.3 ± 0.22 and the protein stability index under setting [2] came to 4.6 ± 0.1.
The corresponding values for QVNRRSAKGNTALHDCAESGSLEI [FEM1A] are 4.56 ± 0.049 and 4.26 ± 0.21.
Take QWLQSTSGSQRHMVGQKDSVILSV [TLE6]: the protein stability index was found to be 2.12 ± 0.093 under setting [1] and 2.29 ± 0.27 under setting [2].
As to QWRIRNLPYPKDVYSVSVDQKERC [DPCD], the protein stability index runs as follows: under setting [1], 3.32 ± 0.42; under setting [2], 3.17 ± 0.21.
As for RAAAAAAVAAATAAVEGSGGSGGG [KCNA4], the protein stability index under setting [1] was found to be 4.88 ± 0.26 and the protein stability index under setting [2] worked out at 4.9 ± 0.28.
The corresponding values for RADQLCQQELRELRRELELLGRER [PRPH] are 3.45 ± 0.17 and 3.37 ± 0.56.
The corresponding values for RAILKPRKVCVGGKRRKDEISVDS [PPP2R2B] are 3.85 ± 0.19 and 4.1 ± 0.12.
For the sequence RAKVQPQARKKEMEMRQLQRGPA [CPN1], the protein stability index (treatment: DMSO, c terminus: native) stood at 3.26 ± 0.43 and the protein stability index (treatment: MLN4924 1 uM, 8 h, c terminus: native) was determined as 3.11 ± 0.18.
RAVRQSVTSFPDADAFHHQVHDDD [EMD]: the protein stability index reads like this: under setting [1], 5.2 ± 0.17; under setting [2], 5.314 ± 0.044.
For RAWSQCGGGGLRAWSQRSAAGRVC [CPOX], in that order: 2.71 ± 0.077 and 2.88 ± 0.37.
With RCPVTVCGDVHGQFHDLMELFRIG [PPP2CA], the protein stability index worked out at 2.2 ± 0.35 under setting [1] and 2.24 ± 0.14 under setting [2].
For RDIRCSEDEKLCDPNTRPVGEKNC [ADAMTSL2], the protein stability index came to 5.18 ± 0.28 under setting [1] and 5.35 ± 0.22 under setting [2].
For RDLPDTPRRFTFYPCVLATEGFTS [TRIM39], the protein stability index is 2.56 ± 0.21 under setting [1] and 2.5 ± 0.2 under setting [2].
For RDMNGKSLDGKAIKVEQATKPSFE [RBMX], in that order: 5.08 ± 0.24 and 5.24 ± 0.27.
With RDRLLNRYRQAGSSGPGNSQNSFL [RPAIN], the protein stability index by setting is: under setting [1], 3.36 ± 0.32; under setting [2], 3.56 ± 0.38.
RDSESTRHDSETEDMLWDDLLHGP [PHTF1]: the protein stability index is, setting by setting: under setting [1], 5.49 ± 0.31; under setting [2], 5.4 ± 0.2.
With REHKETCEMDWSDKMEAYNIDETC [TEKT4], the protein stability index runs as follows: under setting [1], 5.26 ± 0.19; under setting [2], 5.14 ± 0.077.
The corresponding values for RERREEDRAPAEQVPRSPVIKISY [PWWP2B] are 4.34 ± 0.34 and 4.08 ± 0.18.
